# T1: IsdA.6xHis (Staphylococcus aureus, UniProt A6QG31 47-316)
# T1 construct: also called IsdA-6× His; IsdA.6×His
# T1 sequence: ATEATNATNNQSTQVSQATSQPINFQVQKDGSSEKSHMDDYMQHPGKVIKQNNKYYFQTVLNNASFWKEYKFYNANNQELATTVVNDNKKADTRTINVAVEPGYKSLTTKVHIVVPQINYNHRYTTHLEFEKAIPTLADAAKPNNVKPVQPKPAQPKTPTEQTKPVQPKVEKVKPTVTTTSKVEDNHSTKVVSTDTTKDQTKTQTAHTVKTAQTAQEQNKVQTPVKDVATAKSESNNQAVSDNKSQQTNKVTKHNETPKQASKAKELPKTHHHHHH
# Tests used:
# [1] = biological target: T1, IsdA.6xHis; experiment: SPR (Biacore), mAb captured by anti-human Fc, IsdA.6xHis injected, 25 C
# Method: (§1) The equilibrium dissociation constants (KD) to Protein A and IsdA.6×His reagents binding to purified anti-IsdA*/* and anti-Protein A*/* monoclonal antibodies were determined using a real-time surface plasmon resonance based Biacore T200 or Biacore 4000 biosensor. All binding studies were performed in 10 mM HEPES, 150 mM NaCl, 3.4 mM EDTA and 0.05% v/v Tween-20, pH 7.4 (HBS-EP) running buffer at 25° C. and 37° C. […] Proteins were injected over the captured anti-IsdA*/* and anti-Protein A*/* monoclonal antibody surface for 3-3.5 minutes at a flow rate of 30-50 μL/minute, while the dissociation of monoclonal antibody bound IsdA.6×His and Protein A reagent was monitored for 5-10 minutes in HBS-EP running buffer. The association rate (ka) and dissociation rate (kd) were determined by fitting the real-time binding sensorgrams to a 1:1 binding model with mass transport limitation using Scrubber 2.0c curve-fitting software. Binding dissociation equilibrium constant (KD) and dissociative half-life (t½) were calculated from the kinetic rates as:
# [2] = biological target: T1, IsdA.6xHis; experiment: SPR (Biacore), mAb captured by anti-human Fc, IsdA.6xHis injected, 37 C
# Method: as §1
binder,measurement,setting,value
"H1xH20334P2*/* (anti-IsdA) (antibody, V domains shown, also called anti-IsdA*/* monoclonal antibody) VH: EVQLVESGGGLVQPGRSLRVSCAASGFTFDDYAMHWVRQIPGKGLEWVSGIRWNSDTIGYADSVKGRFTISRDNAKNFLYLQMNSLRTEDTALYYCVKDMRVRGIIMYGMDVWGQGTTVTVSS VL: not shown",Kd,[1],1.28 nM
same,koff,[1],0.000446 s⁻¹
same,kon,[1],348000 M⁻¹ s⁻¹
same,t½,[1],26 min
same,Kd,[2],3.49 nM
same,koff,[2],0.00167 s⁻¹
same,kon,[2],479000 M⁻¹ s⁻¹
same,t½,[2],7 min
